Consider 1 substance from patent publication US10654939.

The Kd is the free concentration of one partner at which half of the binding sites on the other are occupied at equilibrium, for simple one-to-one binding. What is called EC50 is the concentration at which the effect is half-maximal.

For assay [1], the target named is recombinant human CD40 (ECD)-his (human) (UniProt P25942). Nature of the assay: SPR (Biacore 8K), hCD40(ECD)-his coupled to chip, antibody injected.
The target is the same in assay [2]. Nature of the assay: ELISA, hCD40(ECD)-his coated.
Assay [3] deals with rhesus CD40 expressed on HEK293A cells (rhesus monkey). Nature of the assay: FACS, HEK293A/rhesusCD40 cells. For orientation: A flow cytometer gives signals particle by particle.
For assay [4], the target named is recombinant rhesus CD40 (ECD)-hFc (rhesus monkey). Kind of assay: ELISA, rhCD40(ECD)-hFc coated. Background: In an ELISA, binding on a coated surface is turned into a signal by an enzyme label.
Assay [5] has as its target human CD40 expressed on cells (human) (UniProt P25942). Nature of the assay: cell-based or functional assay.
For assay [6] the target is unchanged. Nature of the assay: FACS, HEK293A/humanCD40 cells.

Chain of RO7009789 (antibody) (VH): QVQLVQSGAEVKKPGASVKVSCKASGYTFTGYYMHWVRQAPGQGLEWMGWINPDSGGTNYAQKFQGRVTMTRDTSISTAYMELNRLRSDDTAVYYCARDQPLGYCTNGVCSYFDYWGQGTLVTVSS
Chain of RO7009789 (antibody) (VL): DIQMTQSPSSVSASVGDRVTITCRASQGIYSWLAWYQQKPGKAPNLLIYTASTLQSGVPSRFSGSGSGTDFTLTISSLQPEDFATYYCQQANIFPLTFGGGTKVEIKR
Chain of recombinant human CD40 (ECD)-his (human) (P25942 21-193): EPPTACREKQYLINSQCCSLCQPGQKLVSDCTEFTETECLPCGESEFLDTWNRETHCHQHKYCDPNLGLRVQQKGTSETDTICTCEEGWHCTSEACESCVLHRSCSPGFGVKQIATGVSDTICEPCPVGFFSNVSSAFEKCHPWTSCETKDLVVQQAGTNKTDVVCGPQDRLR
Chain of human CD40 expressed on cells (human) (P25942 21-277 limits assumed): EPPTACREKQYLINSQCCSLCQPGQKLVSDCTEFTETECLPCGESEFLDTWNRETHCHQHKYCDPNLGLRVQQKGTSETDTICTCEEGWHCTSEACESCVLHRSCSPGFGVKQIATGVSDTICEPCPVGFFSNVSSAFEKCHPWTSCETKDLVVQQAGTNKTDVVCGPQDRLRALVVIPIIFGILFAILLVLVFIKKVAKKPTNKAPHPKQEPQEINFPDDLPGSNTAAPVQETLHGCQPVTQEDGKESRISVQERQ
Chain of rhesus CD40 expressed on HEK293A cells (rhesus monkey) (P25942 other isoform, or with tags, fused parts or gaps limits assumed): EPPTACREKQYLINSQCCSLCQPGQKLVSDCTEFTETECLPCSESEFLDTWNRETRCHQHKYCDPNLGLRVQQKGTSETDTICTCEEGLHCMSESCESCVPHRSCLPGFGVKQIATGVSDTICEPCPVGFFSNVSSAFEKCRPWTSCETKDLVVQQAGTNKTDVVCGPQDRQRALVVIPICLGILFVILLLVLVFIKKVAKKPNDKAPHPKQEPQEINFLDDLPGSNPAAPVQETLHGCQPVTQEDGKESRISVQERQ
Chain of recombinant rhesus CD40 (ECD)-hFc (rhesus monkey) (P25942 other isoform, or with tags, fused parts or gaps): as the sequence (P25942 21-193) above, with G43S, H56R, W89L, T92M, A95S, L101P, S106L, H142R, L172Q counted along it

Regarding RO7009789 (antibody), the Kd in assay [1] turned out to be 1.71 nM. Further, the EC50 was 0.0207 µg/mL in assay [2], 0.185 µg/mL in assay [3], 0.0162 µg/mL in assay [4] and 0.227 µg/mL in assay [6]. The substance further gave an HEK Blue EC50 in assay [5] of 0.0233 µg/mL.
